From patent publication US20080032927A1 (published 2008)
Read-outs that look alike come from different tables or passages of the source.

Experiments:
[1] = biological target: LEF1/TCF-transcriptional factors; assay: cell-based or functional assay
TCF4 = biological target: T1, TCF4 (UniProt Q9NQB0 1-619, limits assumed); assay: co-immunoprecipitation with anti-TCF4 beads
T1 construct: Endogenous protein of HCT116 cells; also called endogenous TCF4
Method: Co-immunoprecipitation-The affinity-protein G beads were prepared by mixing 20 μl of protein G plus-Agarose beads (Santa Cruz Biotechnology) with 1 μg of corresponding antibody. A total of 2×10⁶ of cells were lysed with 1× cells lysis buffer (Promega) containing 1× protease inhibitor reagent (Roche), incubated on ice for 30 minutes, sonicated briefly, and centrifuged at 12,000 g for 5 minutes at 4° C. The supernatants were further cleaned with 20 μl of untreated protein G plus-Agarose beads and 2 μg of pre-immune serum for 2 hours at 4° C. The supernatants were then mixed with 20 μl of prelabeled protein G plus-Agarose beads at 4° C. overnight. The beads were washed four times with PBS plus 0.2% NP40.
Xom binds to LEF1/TCF factors in vivo and in vitro-Binding of LEF1/TCFs to the promoter of TOPflash is required for the activation of the reporter construct; thus, the finding that expression of Xom activates TOPflash but not FOPflash raised the possibility that Xom activates the TOPflash reporter through interaction with LEF1/TCFs. This hypothesis was tested by determining whether Xom physically interacts with LEF1/TCFs. Co-immunoprecipitation experiments was carried out in HCT116 cells transiently transfected with mye-Xom. […] The in vivo association between Xom and TCF4 appears to be strong and could not be dissociated with 300 mM NaCl and 0.1% NP40. […]

[2] = biological target: LEF1/TCF-transcriptional factors; assay: cell-based or functional assay; remark: listed apart in the source

T1 sequence (Q9NQB0 whole entry): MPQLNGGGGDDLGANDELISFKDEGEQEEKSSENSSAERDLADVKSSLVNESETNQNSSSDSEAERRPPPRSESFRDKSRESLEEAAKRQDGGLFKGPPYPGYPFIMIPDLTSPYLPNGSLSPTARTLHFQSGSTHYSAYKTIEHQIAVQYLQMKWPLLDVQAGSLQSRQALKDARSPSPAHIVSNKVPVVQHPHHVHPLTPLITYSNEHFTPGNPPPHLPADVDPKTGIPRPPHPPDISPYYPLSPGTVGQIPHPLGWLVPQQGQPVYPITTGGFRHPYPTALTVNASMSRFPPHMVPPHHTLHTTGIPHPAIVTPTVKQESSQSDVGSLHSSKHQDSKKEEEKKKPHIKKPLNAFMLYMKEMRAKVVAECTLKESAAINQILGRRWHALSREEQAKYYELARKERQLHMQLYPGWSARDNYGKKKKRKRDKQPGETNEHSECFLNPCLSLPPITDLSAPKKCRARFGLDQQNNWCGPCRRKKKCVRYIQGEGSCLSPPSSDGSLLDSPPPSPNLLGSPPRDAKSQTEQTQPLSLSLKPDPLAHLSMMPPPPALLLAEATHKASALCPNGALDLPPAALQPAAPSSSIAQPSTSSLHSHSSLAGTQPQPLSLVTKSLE

**Q.** What does the source list for Xom?
**A.** TOPflash reporter in 293T cells [1]: 10 fold; TOPflash reporter transcription in Xenopus embryos [1]: 7 fold

B1: XomID110 (other)
chain: MTKAFSSVEWLAQSSRRSHREQPSKVDQRYSPYPSPSLPSWNSDVSPSSWNSQLSPDPDSAQVSPCPASAQVSPYSSDSEISLYSHEEEASFYGMDLNTSSSPGDNGLLHSEMVSVPDNIPRASSDEDAAYHPAQFFGVYGYAQQPTPVFQHAVQHPYPGYNPLMETLPGTMPYTMHPPAMDSMTPFNSQPFQMLYLPQQHLGQPLTYQEERPFVR
notes: Internal deletion mutant of Xom lacking aa 131-240, which includes the homeodomain; also called XomID110 (fusion of aa 1-130 and aa 241-326)
**Q.** Does B1 bind (TCF4)?
**A.** Result: no binding

B2: XomCD85 (protein)
chain: MTKAFSSVEWLAQSSRRSHREQPSKVDQRYSPYPSPSLPSWNSDVSPSSWNSQLSPDPDSAQVSPCPASAQVSPYSSDSEISLYSHEEEASFYGMDLNTSSSPGDNGLLHSEMVSVPDNIPRASSDEDAAKSAYSTSTDSGYESETSCSSSTAPEGDAISLSPNDTSDEEGKMGRRLRTAFTSDQISTLEKTFQKHRYLGASERQKLAAKLQLSEVQIKTWFQNRRMKYKREIQDGRPDSY
**Q.** How did the TOPflash reporter in 293T cells [2] turn out when B2 was run?
**A.** The TOPflash reporter in 293T cells was 10 fold.
